# Reference: patent US20250000946A1 (WUXI BIOLOGICS IRELAND, published 2025)
# T1: W3XX115-hPro1.ECD.His, IL2Rα ECD (Homo sapiens (Human), UniProt P01589 22-213)
# T1 construct: Entry includes the C-terminal 6xHis tag; also called CD25
# T1 sequence: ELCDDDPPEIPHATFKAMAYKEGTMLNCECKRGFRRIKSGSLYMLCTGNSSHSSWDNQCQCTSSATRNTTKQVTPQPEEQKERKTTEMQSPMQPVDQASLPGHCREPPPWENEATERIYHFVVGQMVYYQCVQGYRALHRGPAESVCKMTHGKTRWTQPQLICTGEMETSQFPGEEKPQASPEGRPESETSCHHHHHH
# T2: Human IL-2Rβ/γ (intermediate affinity IL-2 receptor) (human, UniProt P14784 27-551; P31785 23-369)
# T2 construct: whole, on cells; also called IL-2Rβ/γc; IL-2Rβ (CD122) and γ (CD132)
# T2 sequence (looked up) 1: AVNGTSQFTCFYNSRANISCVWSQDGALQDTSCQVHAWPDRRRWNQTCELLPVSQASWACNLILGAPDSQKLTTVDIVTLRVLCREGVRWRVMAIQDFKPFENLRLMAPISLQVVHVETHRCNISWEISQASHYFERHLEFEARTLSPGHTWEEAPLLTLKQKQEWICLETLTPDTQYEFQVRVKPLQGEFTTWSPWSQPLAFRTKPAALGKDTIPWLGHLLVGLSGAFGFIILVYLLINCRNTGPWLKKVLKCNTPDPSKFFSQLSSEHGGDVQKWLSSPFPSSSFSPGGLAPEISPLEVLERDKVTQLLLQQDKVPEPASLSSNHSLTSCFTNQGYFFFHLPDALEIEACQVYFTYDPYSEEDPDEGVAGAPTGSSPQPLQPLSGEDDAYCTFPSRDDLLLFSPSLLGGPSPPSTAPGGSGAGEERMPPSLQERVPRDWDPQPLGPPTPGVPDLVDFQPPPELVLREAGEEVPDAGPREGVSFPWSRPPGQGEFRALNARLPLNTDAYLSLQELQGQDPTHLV
# T2 sequence (looked up) 2: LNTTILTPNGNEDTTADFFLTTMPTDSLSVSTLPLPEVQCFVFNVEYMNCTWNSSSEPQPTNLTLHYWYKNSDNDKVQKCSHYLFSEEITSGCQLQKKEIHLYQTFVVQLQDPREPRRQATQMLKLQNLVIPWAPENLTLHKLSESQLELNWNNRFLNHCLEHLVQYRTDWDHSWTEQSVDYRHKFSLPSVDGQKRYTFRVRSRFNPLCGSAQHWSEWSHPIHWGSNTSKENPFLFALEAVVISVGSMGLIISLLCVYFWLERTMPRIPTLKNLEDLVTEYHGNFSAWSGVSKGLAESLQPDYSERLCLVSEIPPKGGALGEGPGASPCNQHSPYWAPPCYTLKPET
# T3: Human IL-2Rα/β/γ complex (high affinity IL-2 receptor) (human, UniProt P01589 22-272; P14784 27-551; P31785 23-369)
# T3 construct: whole, on cells
# T3 sequence (looked up) 1: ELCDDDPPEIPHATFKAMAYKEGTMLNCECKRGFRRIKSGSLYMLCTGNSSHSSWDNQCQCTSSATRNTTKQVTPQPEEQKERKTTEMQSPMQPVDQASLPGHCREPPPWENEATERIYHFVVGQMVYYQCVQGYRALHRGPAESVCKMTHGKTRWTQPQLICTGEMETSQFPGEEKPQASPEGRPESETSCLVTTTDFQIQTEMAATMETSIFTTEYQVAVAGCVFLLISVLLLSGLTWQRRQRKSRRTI
# T3 sequence (looked up) 2: T2 sequence (looked up) 1
# T3 sequence (looked up) 3: T2 sequence (looked up) 2
# T4: W369-hPro2.ECD.His, IL2Rβ ECD (human, UniProt P14784 27-239)
# T4 construct: Entry includes linker and C-terminal 6xHis tag; also called CD122
# T4 sequence: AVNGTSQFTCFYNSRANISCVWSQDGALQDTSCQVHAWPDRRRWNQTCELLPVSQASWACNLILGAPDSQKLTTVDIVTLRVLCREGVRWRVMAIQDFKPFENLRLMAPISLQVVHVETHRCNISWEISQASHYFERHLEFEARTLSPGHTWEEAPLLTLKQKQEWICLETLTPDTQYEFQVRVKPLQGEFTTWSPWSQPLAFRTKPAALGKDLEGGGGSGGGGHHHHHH
# B1: W3XX115-T2U0.E44-33.uIgG4V322 (Fc fusion)
# chain: APTSSSTKKTQLQLEHLLLDLQMILNGINNYKNPKLTWMLTFKFYMPKKATELKHLQCLEEELKPLEEVLNLAQSKNFHLRPRDLISNINVIVLELKGSETTFMCEYADETATIVEFLNRWITFCQSILESKYGPPCPPCPAPEAAGGPSVFLFPPKPKDTLMISRTPEVTCVVVDVSQEDPEVQFNWYVDGVEVHNAKTKPREEQFNSTYRVVSVLTVLHQDWLNGKEYKCKVSNKGLPSSIEKTISKAKGQPREPQVYTLPPCQEEMTKNQVSLWCLVKGFYPSDIAVEWESNGQPENNYKTTPPVLDSDGSFFLYSRLTVDKSRWQEGNVFSCSVMHEALHNHYTQKSLSLSLG
# heavy: EIQLQQSGPELVKPGASVKVSCKASGYSFTDYNMYWVKQSHGESLEWIGYIDPYNGGTRYNQKFKGKATLTVDKSSSTAFMHLNSLTSEDSAVYYCARNGHWDGAWFAYWGQGTLVTVSAASTKGPSVFPLAPCSRSTSESTAALGCLVKDYFPEPVTVSWNSGALTSGVHTFPAVLQSSGLYSLSSVVTVPSSSLGTKTYTCNVDHKPSNTKVDKRVESKYGPPCPPCPAPEAAGGPSVFLFPPKPKDTLMISRTPEVTCVVVDVSQEDPEVQFNWYVDGVEVHNAKTKPREEQFNSTYRVVSVLTVLHQDWLNGKEYKCKVSNKGLPSSIEKTISKAKGQPREPQVCTLPPSQEEMTKNQVSLSCAVKGFYPSDIAVEWESNGQPENNYKTTPPVLDSDGSFFLVSRLTVDKSRWQEGNVFSCSVMHEALHNHYTQKSLSLSLG
# light: DIQMNQSPSSLSASLGDTITITCHASQNINVWLSWYQQKPGNIPKLLIYKASNLHTGVPSRFSGSRSGTGFTLTISSLQPEDIATYYCHQGQSYPFTFGSGTKLEIKRTVAAPSVFIFPPSDEQLKSGTASVVCLLNNFYPREAKVQWKVDNALQSGNSQESVTEQDSKDSTYSLSSTLTLSKADYEKHKVYACEVTHQGLSSPVTKSFNRGEC
# Tests used:
# [1] = target: T1, W3XX115-hPro1.ECD.His, IL2Rα ECD; assay: SPR Biacore 8K
# Experimental: (§1) IL-2 variants binding affinity to IL-2 receptor were detected by SPR using Biacore 8K. For IL-2Rα binding assay, each variant was captured on anti-human Fc immobilized CM5 sensor chip (cytiva). W3XX115-hPro1.ECD.His at different concentrations were injected over the sensor chip at a flow rate of 30 uL/min for an association phase of 60 s, followed by 90 s dissociation. The chip was then regenerated by 10 mM Glycine-HCl pH1.5 after each binding cycle. For IL-2Rγ binding assay, IL-2 variants were mixed with W369-hPro2.ECD.His as 1:1 before assay, were detected by SPR using Biacore 8K. W3XX115-hPro1.ECD.His was captured on anti-His immobilized CM5 sensor chip (cytiva). The mixture were injected over the sensor chip as described above. The sensorgrams of blank surface and buffer channel were subtracted from the test sensorgrams. The experimental data was fitted by steady state affinity model. Molecular weight of W3XX115-hPro1.ECD.His or W369-hPro1.ECD.His was used to calculate the molar concentration of analyte.
# (§2) For T3U0.E44-1 and T2U0.E44-33, no binding to IL-2Rα was detected.
# [2] = target: T2, Human IL-2Rβ/γ (intermediate affinity …); assay: FACS, HH cells
# Method in brief: (§3)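 Surface binding of IL-2/Fc fusion proteins at 4° C. (30 min, no internalization) on lymphoma lines HH (CD122/CD132 only), NK92 and MJ20 (plus CD25); secondary PE-anti-human Fc; MFI by FACS.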
# [3] = target: T3, Human IL-2Rα/β/γ complex (high affinity …); assay: FACS, MJ20 cells
# Experimental: (§4) Human cutaneous T cell lymphoma HH cells, malignant non-Hodgkin's lymphoma NK92 cells and cutaneous T cell lymphoma MJ20 cells were used for binding assay. They both constitutively express IL-2Rβ (CD122) and […] (CD132), and NK92 and MJ20 also expresses IL-2Rα (CD25). HH, NK92 and MJ20 cells were cultured following ATCC guidance, then transferred to a 96-plate for binding analysis. Cells were incubated with IL-2/Fc fusion proteins at the indicated concentrations for 30 min at 4° C. to avoid internalization. Binding was detected by 2nd antibody of PE-anti-human Fc at 4° C. for another 30 min. The median fluorescence intensity (MFI) on HH and NK92 cells was measured using FACS.
# [4] = target: T2, Human IL-2Rβ/γ (intermediate affinity …); assay: cell-based or functional assay
# [5] = target: T3, Human IL-2Rα/β/γ complex (high affinity …); assay: cell-based or functional assay
# [6] = target: T2, Human IL-2Rβ/γ (intermediate affinity …); assay: FACS, HH cells; EC50 fold vs T2U0.E44-1
# Method in brief: as §3
# [7] = target: T3, Human IL-2Rα/β/γ complex (high affinity …); assay: FACS, MJ20 cells; EC50 fold vs T2U0.E44-1
# Experimental: as §4
# Mutations of F42 or R38 were involved in T2U0.E44-26 to generate IL-2 variants.
# [8] = target: T4, W369-hPro2.ECD.His, IL2Rβ ECD; assay: SPR Biacore 8K; set-up for IL-2Rβ not described
# [9] = target: T1, W3XX115-hPro1.ECD.His, IL2Rα ECD; assay: SPR Biacore 8K; variant captured via anti-human Fc, IL-2Rα ECD-His injected; steady state
# Experimental: as §1, §2
binder,measurement,setting,value
B1,fold affinity reduction compared to T2U0.E44-1,[1],~10 fold
same,EC50,[2],760 nM
same,EC50,[3],627 nM
same,Human CD8+ T Potency EC50 (STAT5 phosphorylation),[4],149 nM
same,Human CD8+ T Potency reduction,[4],41 fold
same,Human Treg Potency EC50 (STAT5 phosphorylation),[5],0.42 nM
same,Human Treg Potency reduction,[5],302 fold
same,Affinity reduction,[6],15 fold
same,Affinity reduction,[7],13.7 fold
same,Kd,[8],5870 nM
same,Kd,[9],1030 nM
